Earlier results on one molecule are cited in publication PMC3218054, “Characterisation of the Interaction of the C-Terminus of the Dopamine D2 Receptor with Neuronal Calcium Sensor-1” (PLoS ONE, 2011).

This data set has as its system NCS-1. To be noted: D3 receptor. From the text: Ultimately, it would be important to understand how NCS-1 interacts with the intact receptor. We, therefore, constructed a model of the NCS-1-D3 receptor complex using the AIR derived from the D2SR peptide-NCS-1 chemical mapping data, and taking into consideration that many of the hydrophobic residues at the C-terminus of D3 receptor are involved in intramolecular interactions with helix I of the receptor [45]. HADDOCK docking produ ... || Biophysical analysis of NCS-1 was consistent with the protein being monomeric in the presence or absence of Ca ^2+.

“Also recorded” adds a separate entry of the source.

B1: D3 receptor: dopamine D3 receptor (PDB Accession 3PBL), docked onto NCS-1 (protein, UniProt P35462 1-400, looked up)
D(3) dopamine receptor: MASLSQLSGHLNYTCGAENSTGASQARPHAYYALSYCALILAIVFGNGLVCMAVLKERALQTTTNYLVVSLAVADLLVATLVMPWVVYLEVTGGVWNFSRICCDVFVTLDVMMCTASILNLCAISIDRYTAVVMPVHYQHGTGQSSCRRVALMITAVWVLAFAVSCPLLFGFNTTGDPTVCSISNPDFVIYSSVVSFYLPFGVTVLVYARIYVVLKQRRRKRILTRQNSQCNSVRPGFPQQTLSPDPAHLELKRYYSICQDTALGGPGFQERGGELKREEKTRNSLSPTIAPKLSLEVRKLSNGRLSTSLKLGPLQPRGVPLREKKATQMVAIVLGAFIVCWLPFFLTHVLNTHCQTCHVSPELYSATTWLGYVNSALNPVIYTTFNIEFRKAFLKILSC
B1: the “ability to bind NCS-1” value was “shown to bind to the dopamine D3 receptor and to regulate its internalisation; also recorded: can also bind to NCS-1”.
